± gives the uncertainty stated by the source.
test: amyloid nucleation score (Sup35N fusion, yeast selection) (log enrichment); library NNK1; higher = more nucleation; inactive = no reads after selection
Procedure, shortened: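 Peptides of 20 random codons, each fused to Sup35N, were expressed in psi-negative yeast. Cells were induced with 100 μM copper sulfate for 24 hours and grown 7 days at 30°C on medium lacking adenine and uracil, and plasmid inserts before and after selection were Illumina-sequenced. Nucleation scores are DiMSum log enrichments of output over input reads, centred on the mode score of non-aggregating sequences, and sequences under 100 input reads were excluded.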

Substance | amyloid nucleation score
DRVANNLMD | -0.344 ± 0.26
DRYIREISNTATCFALLL | 4.29 ± 0.083
DSLLWVMKYSMVSFYMCDYR | -0.668 ± 0.97
DSQGFMRVISLMFVDGSLLA | 0.591 ± 0.54
DSRFHSLGVLAHMPRDCNCG | 0.853 ± 0.86
DSRKSRYGSWVLRWS | inactive
DSSLRDKYVTKNVFIFSMSG | 4.71 ± 0.063
DSTFHMDYY | -0.121 ± 0.5
DSVYRLFICIVISALTGWWK | 0.258 ± 0.62
DTECRGMKVELHRTHRMGKF | -0.179 ± 0.62
DTLEVTFGYYDCYGMYKTIT | -1.18 ± 1.7
DTLLKF | 0.916 ± 0.74
DTYITGSHCHFYMNCWKA | 8.519 ± 0.079
DVFRML | inactive
DVLLCSIRTSSHDMIIMRKR | 0.553 ± 0.65
DVSLNVNLYVHRFMCHQVPI | 0.515 ± 0.28
DVSNTVFFTLLYLLGPRCRS | 0.721 ± 0.38
DVSVT | inactive
DVVEYVIWSYTWMNLAHYCR | 0.136 ± 0.24
DWGKSSPLLKVLLMQSRLPC | -0.073 ± 0.45
DWRMWGF | -0.865 ± 0.69
DYGIWELSINMSVKYLCWLP | 1.27 ± 0.13
DYGKSCRIALYGYYDRWCTG | 0.797 ± 0.48
DYKHNPKWKMCKCLLAIRNY | 1.53 ± 0.51
DYNWSCFH | 1.28 ± 0.69

Substance | amyloid nucleation score
DYYVVLDMQQVFEGGCRFFR | 0.498 ± 0.46
EACNNQNFCRTSNGESSTTV | 0.324 ± 0.75
EAGKLL | 0.309 ± 0.32
EAGNTDSAINGVRAKDGS | 1.15 ± 0.69
EAVRWRGRNVRNLFWDN | 0.03 ± 0.35
ECGVFQVKTAGIGS | -0.425 ± 0.8
ECMGGVAIARNFATI | -1.11 ± 2.7
ECMVYDYNYWVHVYGITYCC | 0.242 ± 0.35
ECSGVNLNTSYLPGVQEATM | 0.715 ± 0.2
EDAWGIIEEIIGWRGCGRLA | -0.84 ± 0.74
EDDLN | 0.271 ± 0.38
EDFLYMCFRLSFVIIH | 3.42 ± 0.12
EDWHVDSFGFSKTSMGTRRL | 2.49 ± 0.14
EEWFETGCENGCNVEGNRSC | -0.117 ± 0.57
EFAYQV | -0.552 ± 1.5
EFEWNLFPICNTNMI | 1.66 ± 0.8
EGGSF | 0.059 ± 0.45
EGMNLV | 0.196 ± 0.63
EGQCSNIVSKLAPSKIPYLR | -0.853 ± 0.66
EGRPECKARLSRYGRCRMNG | 0.447 ± 0.48
EGRTWRGSRRGLHLDSPRMC | 0.438 ± 0.95
EGVQKDC | inactive
EGVVMRISWKNTNGHVYEKG | 2.06 ± 0.23
EIARHSFF | inactive
EIMFDWVMMEKKCRILHKKT | inactive

Substance | amyloid nucleation score
EINESRLYYNSLQAFAFMWA | -0.823 ± 0.57
EIQSSRRKITISMPNRSIVV | 0.333 ± 0.25
EIRWSHIFERWV | 0.628 ± 0.38
EKFGRRCCSFGRSVSEWVTK | 0.999 ± 0.66
EKGLEFHLWLRPVLRACVGY | 1.01 ± 1.1
ELIFFDDHFTDWYLCFNNFG | -1.29 ± 1.4
ELIIRTRLAVEELLMKACFV | -0.498 ± 0.39
ELSYSYQSGID | 0.225 ± 0.67
ELYPGF | -0.219 ± 1.2
EMCFGLFGKLVWCETWLVKA | 0.344 ± 0.32
EMFCC | 0.554 ± 0.59
EMSRGHLHTSFRVYIQMLGG | 4.54 ± 0.073
ENDVNDLRSPLDNQYLSRLP | inactive
ENMGELCA | inactive
ENRYMELTFQCSARRVG | 2.81 ± 0.11
ENVGRTLAYIWMVWLSSQML | 1.87 ± 0.67
EPARK | inactive
EPLLHSG | inactive
EPYDSLGYPNEDLGTGVFWG | -1.72 ± 2.7
EQCHRVFRAL | 0.362 ± 0.55
EQHCNAMGVSRSGPWCDGEV | 0.051 ± 0.85
EQNCVGVCSELNVFYGACVI | 2.12 ± 0.48
EQRKRDHSRASSVSLKRYMG | 0.657 ± 0.53
ERENAYPSIMLVCV | -0.092 ± 0.32
ERFVYALIEFCIETERLHTE | -0.459 ± 0.45

Substance | amyloid nucleation score
ERITIFVSVRTGKLRYLWPT | -0.837 ± 2.4
ERLYLSRYSMVIFVGLMCKS | -0.145 ± 0.61
ERPAAYATVTTSCKKTWDL | 7.769 ± 0.06
ERSSAPECNFKYISYTGKS | -0.881 ± 0.48
ERYVLAPYQQTRRGNLQFRY | 0.615 ± 0.63
ESAERGVRGSGRGRMNGGMM | -0.778 ± 0.98
ESIVRFKSSRSDKI | 2.86 ± 0.075
ESSIVVGCRGSGWTQDAASQ | -0.465 ± 0.29
ESSLLLLDLGELRCYTFCLV | -0.944 ± 0.94
ESWAITWVGLYGCTLTVIRN | -0.148 ± 0.47
ETRTHWVRLAANNNFH | 0.135 ± 0.88
EVDRWGICCPYW | 1.88 ± 0.26
EVHGFNRCGLKSIRVHKVYA | 0.839 ± 0.62
EVIRLDSIFLETGVRSCFQY | 0.041 ± 0.73
EVITNTNGIVWSFDELYSVM | inactive
EVSLVVYTYVF | 0.697 ± 0.69
EVTDVRLS | 0.862 ± 0.62
EVVEWSLTKNCLFHALFIWV | -0.142 ± 0.3
EVYRVTAYVLFYGICQLTLE | -0.53 ± 0.32
EWKNGSHMWLQRLGESWNRL | -0.413 ± 0.35
EWVGQFEYEGTTLWVYLVTL | -0.419 ± 0.27
EWVVWVDCRGRYADNVSGGA | -0.558 ± 0.53
EYSIIYCICH | 3.08 ± 0.14
FACMEGSLVM | inactive
FACYLNHAGGVSAHKYIFVT | 0.351 ± 0.37

Substance | amyloid nucleation score
FADAASNPNAII | 0.071 ± 0.4
FADLK | -0.88 ± 1.7
FAEENTSKFFSRKGEVCYMF | -0.113 ± 0.9
FALIR | 0.81 ± 0.51
FATFRMSCPAKTVSVAVIGG | -0.069 ± 0.77
FAYRL | 0.404 ± 0.44
FCCCNRLYQGRELWVKLVNR | 4.94 ± 0.06
FCEHNVISYNESLRM | 0.352 ± 0.53
FCGAVVFNVVWCYWNKIAVL | 1.79 ± 0.12
FCGDVKLMYWSRFVLMKGHQ | -1.18 ± 1.1
FCICNRKRHNPSPEKKNA | -1.36 ± 0.91
FCLNLQYRSKMMHRANICL | 0.159 ± 0.17
FCNLYVEWFLGDNVKVTRYR | 3.58 ± 0.095
FCPDICTWKNWSMWMQLEDL | 0.89 ± 0.54
FCSDFKSEYSIWDYWVWHKV | -0.306 ± 0.37
FCTCSLKQVM | inactive
FCVTNPWS | 0.308 ± 0.58
FCVYKAVCIHYPSGFPLTIG | -0.238 ± 0.31
FCWKLGANIDVDECWRWAAD | 1.29 ± 0.63
FCYFRVFVKSILDDWN | 0.278 ± 0.31
FCYSTI | 0.487 ± 0.81
FDLFVKGECFVVRPLATSTY | -0.66 ± 0.38
FDNVVENHSS | -0.074 ± 0.43
FDRSWRGFAGPRQRTGLVVF | -0.178 ± 0.51
FDSFKVRYN | -0.724 ± 0.7

Substance | amyloid nucleation score
FDSGLETTNIKMRYMVVYLR | -0.608 ± 0.38
FESMVTIILIDPFDVLIGDG | inactive
FFAIVGRKVCRGSIHFWSIT | 1.23 ± 0.61
FFGNLVRWSNGYGDHCYSLN | 2.51 ± 0.22
FFICKFL | -0.427 ± 1.9
FFIKE | -0.067 ± 0.48
FFLPILGPW | -0.729 ± 1.7
FFNAV | -0.353 ± 0.59
FFNVVYLTRANASYTGYSNI | 5.41 ± 0.063
FFRIEATSVSLSPAYRLEDR | 2.59 ± 0.28
FFVGEDRACSRYSLTTTITG | 0.554 ± 0.64
FFVSIELITTRLLISQHNSY | -0.689 ± 0.89
FFVVELFVSHKLRLYRVRFG | 0.412 ± 0.62
FFYRPYVFMCLFYMVSRAGS | 4.41 ± 0.078
FGFHRVGSGIMRVVAQH | 0.242 ± 0.44
FGGWNYYYLAVQYIFLDTGV | 2.45 ± 0.15
FGHKPCLATQLTGPTKRCAA | 0.959 ± 1.1
FGINVSIFTESLWLNYC | 4.52 ± 0.052
FGIPST | 1.05 ± 0.34
FGKLYF | -0.52 ± 0.98
FGLIKWWDGVWWLSDLRRLH | 0.979 ± 0.65
FGLRYSMCHHGRGHLKWLYT | 1.35 ± 0.65
FGMSRW | 0.166 ± 0.78
FGPRSDAVLVLYFSYVSPLD | -1.79 ± 2.4
FGQNFEGIWPFVVKNRRLGQ | -1.12 ± 0.59

Substance | amyloid nucleation score
FGREPIRIKTYQSLKNRSLI | -0.013 ± 0.24
FGSMLNGVRYQ | 0.747 ± 0.66
FGSRQVYWSRRMIVQGQVMK | -0.837 ± 0.71
FGVYLACIHRKVLECDR | -0.241 ± 1
FHALGCK | -0.38 ± 0.41
FHLSDGDWYCHVESVTWRAC | 0.375 ± 0.87
FHRVDGVDCRTMYEGV | -0.937 ± 0.72
FHRWLDMWSLRRDFIGYGLG | 0.095 ± 0.77
FHVDDHKWRLPDGELSRTAM | -0.341 ± 0.78
FHVHSVLISE | -0.166 ± 0.84
FHVLG | -1.35 ± 2.7
FHYLMDYSRLNDIPLEDWGW | -0.411 ± 0.73
FIASIG | 0.274 ± 0.79
FICECCISLMIARHRALKPA | -1 ± 0.67
FICQDVNICCSL | 7.305 ± 0.052
FIDIACAHFGMKSCVVL | 1.32 ± 0.9
FIFIDMRRSWDISVKDTRST | 6.802 ± 0.066
FIFLRYGLYVFFASLNGQGY | -0.33 ± 0.83
FIISRD | -0.028 ± 0.34
FILSCISPPYVHCFYCLMFS | 0.854 ± 0.9
FINHKHKQDQVI | 1.48 ± 0.49
FISVGAFGYTMILNVFN | 5.445 ± 0.051
FKCLARFWYADYLRFVFARQ | 0.297 ± 0.32
FKFMSLGMSWAT | 1.61 ± 0.33

From the supplement of paper PMC12042874
